Source: patent US20240101668A1 (WUGEN, published 2024)

Tests used:
Experiment in all cases: FACS on cells
[1] = target: T1, huFLT3-M227 stably expressed on Ramos cells (human, UniProt P36888 27-993)
T1 construct: whole, on cells; also called FLT3 Mutant

[2] = target: T2, huCD33-R69 stably expressed on Jurkat cells (human, UniProt P20138 18-364)
T2 construct: whole, on cells; >200,000 receptors per cell; also called CD33 WT; CD33^ARG69

[3] = target: T3, huCD33-G69 stably expressed on Jurkat cells (human, UniProt P20138 18-364)
T3 construct: whole, on cells; >200,000 receptors per cell; also called CD33 Mutant; CD33 R69G
T3 sequence (P20138 18-364 R69G): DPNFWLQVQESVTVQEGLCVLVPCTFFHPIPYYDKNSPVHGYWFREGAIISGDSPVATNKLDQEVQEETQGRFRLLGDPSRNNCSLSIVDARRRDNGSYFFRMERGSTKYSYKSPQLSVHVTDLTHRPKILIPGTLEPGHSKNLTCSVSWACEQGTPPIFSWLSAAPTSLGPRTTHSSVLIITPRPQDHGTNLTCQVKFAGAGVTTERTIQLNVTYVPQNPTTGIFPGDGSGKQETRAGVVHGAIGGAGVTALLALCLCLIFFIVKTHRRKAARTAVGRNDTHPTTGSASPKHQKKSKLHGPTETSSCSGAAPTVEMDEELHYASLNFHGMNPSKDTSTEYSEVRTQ

T1 sequence (P36888 27-993 T227M): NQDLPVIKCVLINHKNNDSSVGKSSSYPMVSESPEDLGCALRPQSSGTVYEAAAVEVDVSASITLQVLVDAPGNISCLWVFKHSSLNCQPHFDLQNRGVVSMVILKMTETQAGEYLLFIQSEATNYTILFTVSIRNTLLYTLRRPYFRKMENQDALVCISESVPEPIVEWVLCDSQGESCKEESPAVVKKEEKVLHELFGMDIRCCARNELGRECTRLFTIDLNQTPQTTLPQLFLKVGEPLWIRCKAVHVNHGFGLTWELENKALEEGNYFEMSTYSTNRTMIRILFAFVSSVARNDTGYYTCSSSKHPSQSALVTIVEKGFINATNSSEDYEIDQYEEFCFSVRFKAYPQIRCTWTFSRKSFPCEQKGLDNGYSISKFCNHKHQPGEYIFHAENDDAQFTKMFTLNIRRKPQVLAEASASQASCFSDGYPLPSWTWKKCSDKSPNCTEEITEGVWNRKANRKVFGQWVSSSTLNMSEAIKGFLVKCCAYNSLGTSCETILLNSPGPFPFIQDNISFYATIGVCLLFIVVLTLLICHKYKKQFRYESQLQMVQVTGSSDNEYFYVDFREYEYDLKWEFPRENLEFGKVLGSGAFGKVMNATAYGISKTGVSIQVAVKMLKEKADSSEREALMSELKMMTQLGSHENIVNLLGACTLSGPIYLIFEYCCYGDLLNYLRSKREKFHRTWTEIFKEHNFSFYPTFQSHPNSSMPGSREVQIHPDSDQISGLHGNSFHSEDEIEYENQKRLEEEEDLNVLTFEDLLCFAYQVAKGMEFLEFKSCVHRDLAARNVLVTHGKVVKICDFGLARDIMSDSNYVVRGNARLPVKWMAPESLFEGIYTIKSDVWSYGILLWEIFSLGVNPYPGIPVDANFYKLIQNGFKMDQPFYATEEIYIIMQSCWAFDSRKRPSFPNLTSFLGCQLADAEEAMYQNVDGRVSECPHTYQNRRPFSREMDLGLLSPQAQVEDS
T2 sequence (P20138 18-364): as the sequence (P20138 18-364 R69G) above, with G52R counted along it

Binder | FACS geometric mean fold change over Jurkat parental [1] [fold] | FACS geometric mean fold change over Jurkat parental [2] [fold] | FACS geometric mean fold change over Jurkat parental [3] [fold]
Polypeptide No. 210 (scFv, V domains shown, scFv) VH: QVQLVQSGAEVKKPGSSVKVSCKASGYTLTELSMHWVRQAPGQGLEWMGGIIPISGTTKYAQKFQGRVTITADESTSTAYMELSSLRSEDTAVYYCARASPRYYMDVWGKGTTVTVSS VL: not shown | 2 to 10 |  | 
Polypeptide No. 108 (scFv, V domains shown, scFv) VH: QVQLVQSGAEVKKPGASVKVSCKASGYTFTNYDINWVRQAPGQGLEWMGWMNPNSGNTGLVEKFQGRVTMTRDTSTSTVYMELSSLRSEDTAVYYCARGWGHGYGDYKFDYWGQGTLVTVSS VL: not shown |  | 10 to 30 | 10 to 30
Polypeptide No. 89 (scFv, V domains shown, scFv) VH: QVQLVQSGAEVKKPGASVKVSCKASGYTFTNYYMHWVRQAPGQGLEWMGWINPNSGDTNYEQKFQGRVTMTRDTSTSTVYMELSSLRSEDTAVYYCARDDRIQLWVPLVFWGQGTLVTVSS VL: DIQMTQSPSSLSASVGDRVTITCRASQGISNYLAWYQQKPGKAPKLLIYSASNLQSGVPSRFSGSGSGTDFTLTISSLQPEDFATYYCQQSFSTPFTFGQGTKLEIKR |  | 10 to 30 | 10 to 30
Polypeptide No. 226 (scFv, V domains shown, scFv) VH: QVQLVQSGAEVKKPGASVKVSCKASGYTFTGYYMHWVRQAPGQGLEWMGIIDPSGGSTSYAQKFQGRVTMTRDTSTSTVYMELSSLRSEDTAVYYCARDRSLLWSGVGGMDVWGQGTTVTVSS VL: DIQMTQSPSSLSASVGDRVTITCRASQGISNYLAWYQQKPGKAPKLLIYGASNLQSGVPSRFSGSGSGTDFTLTISSLQPEDFATYYCQQSYGTPYTFGQGTKLEIKR | 2 to 10 |  | 
Polypeptide No. 193 (scFv, V domains shown, scFv) VH: EVQLLESGGGLVQPGGSLRLSCAASGFTFSNSDMNWVRQAPGKGLEWVSYISGTGSTIYYADSVKGRFTISRDNSKNTLYLQMNSLRAEDTAVYYCAKDYDSSYGSGYYGMDVWGQGTTVTVSS VL: DIQMTQSPSSLSASVGDRVTITCRASQSIYNYLNWYQQKPGKAPKLLIYAASNLQSGVPSRFSGSGSGTDFTLTISSLQPEDFATYYCQQYGNAPLTFGQGTKVEIKR |  | > 30 | > 30
Polypeptide No. 192 (scFv, V domains shown, scFv) VH: QVQLVQSGAEVKKPGASVKVSCKASGYTFTNYYMHWVRQAPGQGLEWMGWINPNSGDTNYEQKFQGRVTMTRDTSTSTVYMELSSLRSEDTAVYYCARDDRIQLWVPLVFWGQGTLVTVSS VL: DIQMTQSPSSLSASVGDRVTITCRASQGISNYLAWYQQKPGKAPKLLIYSASNLQSGVPSRFSGSGSGTDFTLTISSLQPEDFATYYCQQSFSTPFTFGQGTKLEIKR |  | 10 to 30 | 10 to 30
Polypeptide No. 100 (scFv, V domains shown, scFv) VH: QVQLVQSGAEVKKPGASVKVSCKASGATRSWMHWVRQAPGQGLEWMGIINPSGDSTSYAQKFQGRVTMTRDTSTSTVYMELSSLRSEDTAVYYCAKEPYSSSPYYFDYWGQGTLVTVSS VL: DIQMTQSPSSLSASVGDRVTITCRASQSISSWLAWYQQKPGKAPKLLIYGASSLQSGVPSRFSGSGSGTDFTLTISSLQPEDFATYYCQQSYTTPITFGQGTRLEIKR |  | 10 to 30 | 10 to 30
Polypeptide No. 90 (scFv, V domains shown, scFv) VH: EVQLLESGGGLVQPGGSLRLSCAASGFTFSNSDMNWVRQAPGKGLEWVSYISGTGSTIYYADSVKGRFTISRDNSKNTLYLQMNSLRAEDTAVYYCAKDYDSSYGSGYYGMDVWGQGTTVTVSS VL: DIQMTQSPSSLSASVGDRVTITCRASQSIYNYLNWYQQKPGKAPKLLIYAASNLQSGVPSRFSGSGSGTDFTLTISSLQPEDFATYYCQQYGNAPLTFGQGTKVEIKR |  | > 30 | > 30
Polypeptide No. 91 (scFv, V domains shown, scFv) VH: QVQLVQSGAEVKKPGASVKVSCKASGGTFSSYAISWVRQAPGQGLEWMGWMNPNSGNTGYAQKFQGRVTMTRDTSTSTVYMELSSLRSEDTAVYYCAREDYYDSSGNFDYWGQGTLVTVSS VL: DIQMTQSPSSLSASVGDRVTITCQASHDINIHLNWYQQKPGKAPKLLIYDASNLETGVPSRFSGSGSGTDFTLTISSLQPEDFATYYCQQAYSLPWTFGQGTKVEIKR |  | > 30 | 10 to 30
Polypeptide No. 191 (scFv, V domains shown, scFv) VH: QVQLVQSGAEVKKPGASVKVSCKASGGTFSSYAISWVRQAPGQGLEWMGWMNPNSGNTGYAQKFQGRVTMTRDTSTSTVYMELSSLRSEDTAVYYCAREDYYDSSGNFDYWGQGTLVTVSS VL: DIQMTQSPSSLSASVGDRVTITCQASHDINIHLNWYQQKPGKAPKLLIYDASNLETGVPSRFSGSGSGTDFTLTISSLQPEDFATYYCQQAYSLPWTFGQGTKVEIKR |  | > 30 | 10 to 30
Polypeptide No. 224 (scFv, V domains shown, scFv) VH: QVQLVQSGAEVKKPGSSVKVSCKASGYTFTGYYMHWVRQAPGQGLEWMGVINPIYGTANYALKFQGRVTITADESTSTAYMELSSLRSEDTAVYYCAKAISSGWSNDAFDIWGQGTMVTVSS VL: EIVMTQSPATLSVSPGERATLSCRASQSVSSDFLAWYQQKPGQAPRLLIYDTSSRASGIPARFSGSGSGTEFTLTISSLQSEDFAVYYCQQYAGPPTFGQGTRLEIKR | 2 to 10 |  | 

Further lines, results first:

FACS geometric mean fold change over Jurkat parental [1] [fold] | FACS geometric mean fold change over Jurkat parental [2] [fold] | FACS geometric mean fold change over Jurkat parental [3] [fold] | Binder
2 to 10 |  |  | Polypeptide No. 282 (scFv, V domains shown, scFv) VH: QVQLVQSGAEVKKPGASVKVSCKASGGTFSSYAISWVRQAPGQGLEWMGWMNPNSGDTGYAQKFQGRVTMTRDTSTSTVYMELSSLRSEDTAVYYCARDFEGGGWFDPWGQGTLVTVSS VL: EIVMTQSPATLSVSPGERATLSCRASRSISDYLAWYQQKPGQAPRLLIYDASSRATGIPARFSGSGSGTEFTLTISSLQSEDFAVYYCQQYYTTPLTFGQGTKVEIKR
2 to 10 |  |  | Polypeptide No. 245 (scFv, V domains shown, scFv) VH: QVQLVQSGAEVKKPGSSVKVSCKASGYTFTGFYIHWVRQAPGQGLEWMGGVIPFFSRTIYAQKFQGRVTITADESTSTAYMELSSLRSEDTAVYYCAYGANGHLYGMDAWGQGTTVTVSS VL: EIVMTQSPATLSVSPGERATLSCRASQSVSSSYLAWYQQKPGQAPRLLIYGASTRATGIPARFSGSGSGTEFTLTISSLQSEDFAVYYCQQYSSSPLTFGQGTKVEIKR
2 to 10 |  |  | Polypeptide No. 250 (scFv, V domains shown, scFv) VH: QVQLVQSGAEVKKPGSSVKVSCKASGYTLTSFAMHWVRQAPGQGLEWMGRIIPMSGTANYAQKFQGRVTITADESTSTAYMELSSLRSEDTAVYYCASTSPDQYYYGMDVWGQGTTVTVSS VL: EIVMTQSPATLSVSPGERATLSCRASQSVGSSSLAWYQQKPGQAPRLLIYGASTRATGIPARFSGSGSGTEFTLTISSLQSEDFAVYYCQQYGSSPYTFGQGTKVEIKR
2 to 10 |  |  | Polypeptide No. 263 (scFv, V domains shown, scFv) VH: QVQLVQSGAEVKKPGSSVKVSCKASGGTFSSYAISWVRQAPGQGLEWMGGIIPIVGVANYAQKLQGRVTITADESTSTAYMELSSLRSEDTAVYYCAKDIGGYPSDAFDIWGQGTTVTVSS VL: EIVMTQSPATLSVSPGERATLSCRASQSVSSSYLAWYQQKPGQAPRLLIYDVSTRATGIPARFSGSGSGTEFTLTISSLQSEDFAVYYCQQYGSSPITFGQGTKVEIKR
2 to 10 |  |  | Polypeptide No. 286 (scFv, V domains shown, scFv) VH: QVQLVQSGAEVKKPGASVKVSCKASGYTFTSYGISWVRQAPGQGLEWMGWISPNSGVTNYAQKFQGRVTMTRDTSTSTVYMELSSLRSEDTAVYYCVSDDYGAFDYWGQGTLVTVSS VL: EIVMTQSPATLSVSPGERATLSCRASQSVSSSYLAWYQQKPGQAPRLLIYDVSTRASGIPARFSGSGSGTEFTLTISSLQSEDFAVYYCQQYNNWPYTFGQGTKLEIKR
2 to 10 |  |  | Polypeptide No. 268 (scFv, V domains shown, scFv) VH: QVQLVQSGAEVKKPGSSVKVSCKASGGTFSTYALSWVRQAPGQGLEWMGGVIPVFGTTDYAHKFQGRVTITADESTSTAYMELSSLRSEDTAVYYCASMIIFGAGGWDAYYFQEWGQGTLVTVSS VL: EIVMTQSPATLSVSPGERATLSCRASQSVNNNQLAWYQQKPGQAPRLLIYDTSSRATGIPARFSGSGSGTEFTLTISSLQSEDFAVYYCQQYDTSPYTFGQGTKVEIKR
2 to 10 |  |  | Polypeptide No. 281 (scFv, V domains shown, scFv) VH: QVQLVQSGAEVKKPGASVKVSCKASGYTFNSYGISWVRQAPGQGLEWMGIINPTGGSTTYAQKFQGRVTMTRDTSTSTVYMELSSLRSEDTAVYYCAKDPFVMDVWGQGTTVTVSS VL: EIVMTQSPATLSVSPGERATLSCRASQSVSSSYLAWYQQKPGQAPRLLIYDASARAAGIPARFSGSGSGTEFTLTISSLQSEDFAVYYCQQYYSTPYTFGQGTKLEIKR
